Data taken from patent US9127035B2, “Compounds for use in the treatment of bacterial infection” (THE ROYAL INSTITUTION FOR THE ADVANCEMENT OF …, priority 2011, dated 2015).

Key:
Experiment in all cases: PanK enzyme assay (Michaelis-Menten kinetics)
Format in all cases: biochemical, E. coli
Conditions in all cases: other: transformation by PanK, 25° C., Tris-HCl pH 7.6, triplicate
[1] = substrate: [H][C@]1(O[C@H]2[C@H](O)[C@@H](O)[C@H](N)C[C@@H]2N)O[C@H](CNC(=O)CCSCCNC(=O)CCNC(=O)[C@H](O)C(C)(C)CO)[C@@H](O)[C@H](O)[C@H]1N
Experimental: (§1) PanK enzyme assay. The E. coli pantothenate kinase (PanK or coaA enzyme) was expressed and purified as previously described. Enzyme activity was measured as described in the literature [Strauss E, Begley T P J Biol Chem, 2002, 277:48205-48209]. This assay couples the production of ADP to the consumption of NADH through the activity of pyruvate kinase and lactic dehydrogenase. The decrease of NADH concentration was monitored at 340 nm. Reactions were performed at 25° C. in an Agilent 8453 UV-Vis spectrophotometer coupled to an Agilent 89090A Peltier temperature controller. Kinetic parameters were determined by fitting the rate data into the Michaelis-Menten equation using Prism 4.0 (GraphPad). Each reaction mixture (500 μL) contained ATP (1.5 mM), NADH (0.3 mM), phosphoenolpyruvate (0.5 mM), MgCl2 (10 mM), KCl (20 mM), pyruvate kinase (5 units), lactic dehydrogenase (5 units), and PanK (5 μg, 278 nM) in Tris-HCl buffer (50 mM, pH 7.6). The reaction was initiated by addition of the desired substrate (10-160 μM). All data points are from triplicate experiments.

[2] = substrate: [H][C@]1(O[C@H]2[C@H](O)[C@@H](O)[C@H](N)C[C@@H]2N)O[C@H](CNC(=O)CCCSCCNC(=O)CCNC(=O)[C@H](O)C(C)(C)CO)[C@@H](O)[C@H](O)[C@H]1N
Experimental: as §1

[3] = substrate: [H][C@]1(O[C@H]2[C@H](O)[C@@H](O)[C@H](N)C[C@@H]2N)O[C@H](CNC(=O)CCCCSCCNC(=O)CCNC(=O)[C@H](O)C(C)(C)CO)[C@@H](O)[C@H](O)[C@H]1N
Experimental: as §1

[4] = substrate: CC(C)(CO)[C@@H](O)C(=O)NCCC(=O)NCCSCCCCCC(=O)NC[C@H]1O[C@H](O[C@H]2[C@H](O)[C@@H](O)[C@H](N)C[C@@H]2N)[C@H](N)[C@@H](O)[C@@H]1O
Experimental: as §1

B1: E. coli pantothenate kinase (PanK or coaA enzyme) (Escherichia coli K-12) (protein)
chain: MSIKEQTLMTPYLQFDRNQWAALRDSVPMTLSEDEIARLKGINEDLSLEEVAEIYLPLSRLLNFYISSNLRRQAVLEQFLGTNGQRIPYIISIAGSVAVGKSTTARVLQALLSRWPEHRRVELITTDGFLHPNQVLKERGLMKKKGFPESYDMHRLVKFVSDLKSGVPNVTAPVYSHLIYDVIPDGDKTVVQPDILILEGLNVLQSGMDYPHDPHHVFVSDFVDFSIYVDAPEDLLQTWYINRFLKFREGAFTDPDSYFHNYAKLTKEEAIKTAMTLWKEINWLNLKQNILPTRERASLILTKSANHAVEEVRLRK
notes: made in house
Q: What does the source list for B1?
A: Km [1]: 480 ± 160 µM; kcat [1]: 0.47 ± 0.05 s⁻¹; kcat/Km [1]: 1000 ± 300 M⁻¹ s⁻¹; Km [2]: 350 ± 80 µM; kcat [2]: 0.5 ± 0.05 s⁻¹; kcat/Km [2]: 1400 ± 400 M⁻¹ s⁻¹; Km [3]: 230 ± 69 µM; kcat [3]: 0.52 ± 0.08 s⁻¹; kcat/Km [3]: 2300 ± 800 M⁻¹ s⁻¹; Km [4]: 170 ± 50 µM
